The values below come from the Human Domainome abundance scans (Beltran et al. 2025).

B1: Zinc finger homeobox protein 3, residues 2643 to 2698; numbered along this chain, Q15911 (parent)
chain: RLRTTITPEQLEILYQKYLLDSNPTRKMLDHIAHEVGLKKRVVQVWFQNTRARERK

± gives the uncertainty stated by the source.

In the data set the parent is B1. Briefly: abundance fitness (aPCA) (normalised: wild type 0, dead -1); higher = more abundant; growth selection in yeast, the domain comes from the species named. As to conditions: Homo sapiens.
On to RLRNTITPEQLEILYQKYLLDSNPTRKMLDHIAHEVGLKKRVVQVWFQNTRARERK [T4N], for which the abundance fitness was -0.042 ± 0.2. Next, RLRTTSTPEQLEILYQKYLLDSNPTRKMLDHIAHEVGLKKRVVQVWFQNTRARERK [I6S]: -0.648 ± 0.081.

As to RLRTTLTPEQLEILYQKYLLDSNPTRKMLDHIAHEVGLKKRVVQVWFQNTRARERK [I6L], the abundance fitness is 0.051 ± 0.072. The value for RLRTTNTPEQLEILYQKYLLDSNPTRKMLDHIAHEVGLKKRVVQVWFQNTRARERK [I6N] was -0.702 ± 0.091; that for RLRTTTTPEQLEILYQKYLLDSNPTRKMLDHIAHEVGLKKRVVQVWFQNTRARERK [I6T] was -0.211 ± 0.081; that for RLRTTQTPEQLEILYQKYLLDSNPTRKMLDHIAHEVGLKKRVVQVWFQNTRARERK [I6Q] was -0.705 ± 0.12. The value for RLRTTHTPEQLEILYQKYLLDSNPTRKMLDHIAHEVGLKKRVVQVWFQNTRARERK [I6H] was -0.332 ± 0.09; that for RLRTTMTPEQLEILYQKYLLDSNPTRKMLDHIAHEVGLKKRVVQVWFQNTRARERK [I6M] was 0.068 ± 0.094. The value for RLRTTYTPEQLEILYQKYLLDSNPTRKMLDHIAHEVGLKKRVVQVWFQNTRARERK [I6Y] was 0.035 ± 0.081; that for RLRTTKTPEQLEILYQKYLLDSNPTRKMLDHIAHEVGLKKRVVQVWFQNTRARERK [I6K] was -0.392 ± 0.1; that for RLRTTPTPEQLEILYQKYLLDSNPTRKMLDHIAHEVGLKKRVVQVWFQNTRARERK [I6P] was -0.182 ± 0.083. For RLRTTCTPEQLEILYQKYLLDSNPTRKMLDHIAHEVGLKKRVVQVWFQNTRARERK [I6C], the abundance fitness is -0.022 ± 0.1. The value for RLRTTATPEQLEILYQKYLLDSNPTRKMLDHIAHEVGLKKRVVQVWFQNTRARERK [I6A] was -0.298 ± 0.087. The value for RLRTTGTPEQLEILYQKYLLDSNPTRKMLDHIAHEVGLKKRVVQVWFQNTRARERK [I6G] was -0.543 ± 0.11; that for RLRTTRTPEQLEILYQKYLLDSNPTRKMLDHIAHEVGLKKRVVQVWFQNTRARERK [I6R] was -0.868 ± 0.1; that for RLRTTVTPEQLEILYQKYLLDSNPTRKMLDHIAHEVGLKKRVVQVWFQNTRARERK [I6V] was -0.022 ± 0.08.

As to RLRTMITPEQLEILYQKYLLDSNPTRKMLDHIAHEVGLKKRVVQVWFQNTRARERK [T5M], the abundance fitness came to 0.286 ± 0.15. Next, RLRTAITPEQLEILYQKYLLDSNPTRKMLDHIAHEVGLKKRVVQVWFQNTRARERK [T5A]: 0.132 ± 0.097. The value for RLRTWITPEQLEILYQKYLLDSNPTRKMLDHIAHEVGLKKRVVQVWFQNTRARERK [T5W] was -0.192 ± 0.15; that for RLRTVITPEQLEILYQKYLLDSNPTRKMLDHIAHEVGLKKRVVQVWFQNTRARERK [T5V] was -0.172 ± 0.089; that for RLRTNITPEQLEILYQKYLLDSNPTRKMLDHIAHEVGLKKRVVQVWFQNTRARERK [T5N] was -0.233 ± 0.19. With RLRTHITPEQLEILYQKYLLDSNPTRKMLDHIAHEVGLKKRVVQVWFQNTRARERK [T5H], the abundance fitness is -0.784 ± 0.31. Next, RLRTDITPEQLEILYQKYLLDSNPTRKMLDHIAHEVGLKKRVVQVWFQNTRARERK [T5D]: 0.075 ± 0.14; RLRTEITPEQLEILYQKYLLDSNPTRKMLDHIAHEVGLKKRVVQVWFQNTRARERK [T5E]: 0.445 ± 0.15; RLRTQITPEQLEILYQKYLLDSNPTRKMLDHIAHEVGLKKRVVQVWFQNTRARERK [T5Q]: 0.17 ± 0.15. Next, RLRTYITPEQLEILYQKYLLDSNPTRKMLDHIAHEVGLKKRVVQVWFQNTRARERK [T5Y]: -0.319 ± 0.24; RLRTSITPEQLEILYQKYLLDSNPTRKMLDHIAHEVGLKKRVVQVWFQNTRARERK [T5S]: -0.25 ± 0.12. The value for RLRTCITPEQLEILYQKYLLDSNPTRKMLDHIAHEVGLKKRVVQVWFQNTRARERK [T5C] was -0.107 ± 0.14; that for RLRTFITPEQLEILYQKYLLDSNPTRKMLDHIAHEVGLKKRVVQVWFQNTRARERK [T5F] was -0.358 ± 0.2; that for RLRTRITPEQLEILYQKYLLDSNPTRKMLDHIAHEVGLKKRVVQVWFQNTRARERK [T5R] was -0.498 ± 0.096.

RLRTPITPEQLEILYQKYLLDSNPTRKMLDHIAHEVGLKKRVVQVWFQNTRARERK [T5P]: the abundance fitness was 0.176 ± 0.17. The value for RLRTIITPEQLEILYQKYLLDSNPTRKMLDHIAHEVGLKKRVVQVWFQNTRARERK [T5I] was -0.165 ± 0.14; that for RLRTKITPEQLEILYQKYLLDSNPTRKMLDHIAHEVGLKKRVVQVWFQNTRARERK [T5K] was -0.593 ± 0.23. Consider RLRTTITPCQLEILYQKYLLDSNPTRKMLDHIAHEVGLKKRVVQVWFQNTRARERK [E9C], for which the abundance fitness is -0.712 ± 0.091.

With RLRTTIEPEQLEILYQKYLLDSNPTRKMLDHIAHEVGLKKRVVQVWFQNTRARERK [T7E], the abundance fitness is 0.087 ± 0.096. Next, RLRTTISPEQLEILYQKYLLDSNPTRKMLDHIAHEVGLKKRVVQVWFQNTRARERK [T7S]: -0.169 ± 0.092. As to RLRTTIAPEQLEILYQKYLLDSNPTRKMLDHIAHEVGLKKRVVQVWFQNTRARERK [T7A], the abundance fitness is 0.08 ± 0.084.

With RLRTTILPEQLEILYQKYLLDSNPTRKMLDHIAHEVGLKKRVVQVWFQNTRARERK [T7L], the abundance fitness is -0.212 ± 0.083. Next, RLRTTIPPEQLEILYQKYLLDSNPTRKMLDHIAHEVGLKKRVVQVWFQNTRARERK [T7P]: 0.101 ± 0.14; RLRTTIYPEQLEILYQKYLLDSNPTRKMLDHIAHEVGLKKRVVQVWFQNTRARERK [T7Y]: -0.487 ± 0.26. Next, RLRTTICPEQLEILYQKYLLDSNPTRKMLDHIAHEVGLKKRVVQVWFQNTRARERK [T7C]: -0.244 ± 0.12. The value for RLRTTIVPEQLEILYQKYLLDSNPTRKMLDHIAHEVGLKKRVVQVWFQNTRARERK [T7V] was -0.688 ± 0.1. On to RLRTTIWPEQLEILYQKYLLDSNPTRKMLDHIAHEVGLKKRVVQVWFQNTRARERK [T7W], for which the abundance fitness is -0.719 ± 0.12. Next, RLRTTIGPEQLEILYQKYLLDSNPTRKMLDHIAHEVGLKKRVVQVWFQNTRARERK [T7G]: -0.072 ± 0.077; RLRTTINPEQLEILYQKYLLDSNPTRKMLDHIAHEVGLKKRVVQVWFQNTRARERK [T7N]: -0.338 ± 0.2. Next, RLRTTIMPEQLEILYQKYLLDSNPTRKMLDHIAHEVGLKKRVVQVWFQNTRARERK [T7M]: -0.228 ± 0.15. Next, RLRTTIRPEQLEILYQKYLLDSNPTRKMLDHIAHEVGLKKRVVQVWFQNTRARERK [T7R]: -0.443 ± 0.082.
